Assay results: patent publication US11708423B2, “Chimeric engulfment receptor molecules and methods of use” (CERO THERAPEUTICS, INC., priority 2017, dated 2023)

B1: CER116: Tim4 binding and transmembrane domains, TRAF6 primary and TLR8 secondary signaling domains; SEQ ID NO:143 (protein)
chain: MSKGLLLLWLVTELWWLYLTPAASEDTIIGFLGQPVTLPCHYLSWSQSRNSMCWGKGSCPNSKCNAELLRTDGTRIISRKSTKYTLLGKVQFGEVSLTISNTNRGDSGVYCCRIEVPGWFNDVKKNVRLELRRATTTKKPTTTTRPTTTPYVTTTTPELLPTTVMTTSVLPTTTPPQTLATTAFSTAVTTCPSTTPGSFSQETTKGSAFTTESETLPASNHSQRSMMTISTDIAVLRPTGSNPGILPSTSQLTTQKTTLTTSESLQKTTKSHQINSRQTILIIACCVGFVLMVLLFLAFLMSLLNCENSCGSSQSESDCCVAMASSCSAVTKDDSVGGTASTGNLSSSFMEEIQGYDVEFDPPLESKYECPICLMALREAVQTPCGHRFCKACIIKSIRDAGHKCPVDNEILLENQLFPDNFAKREILSLMVKCPNEGCLHKMELRHLEDHQAHCEFALMDCPQCQRPFQKFHINIHILKDCPRRQVSCDNCAASMAFEDKEIHDQNCPLANVICEYCNTILIREQMPNHYDLDCPTAPIPCTFSTFGCHEKMQRNHLARHLQENTQSHMRMLAHHLFYWDVWFIYNVCLAKVKGYRSLSTSQTFYDAYISYDTKDASVTDWVINELRYHLEESRDKNVLLCLEERDWDPGLAIIDNLMQSINQSKKTVFVLTKKYAKSWNFKTAFYLALQRLMDENMDVIIFILLEPVLQHSQYLRLRQRICKSSILQWPDNPKAEGLFWQTLRNVVLTENDSRYNNMYVDSIKQY
modifications: CER116 protein
B2: CER21−HPV16 E7 TCR: tandem expression cassette: CER21, T2A peptide, HPV16 E7 specific TCR; SEQ ID NO:166 (protein)
chain: MSKGLLLLWLVTELWWLYLTPAASEDTIIGFLGQPVTLPCHYLSWSQSRNSMCWGKGSCPNSKCNAELLRTDGTRIISRKSTKYTLLGKVQFGEVSLTISNTNRGDSGVYCCRIEVPGWFNDVKKNVRLELRRATTTKKPTTTTRPTTTPYVTTTTPELLPTTVMTTSVLPTTTPPQTLATTAFSTAVTTCPSTTPGSFSQETTKGSAFTTESETLPASNHSQRSMMTISTDIAVLRPTGSNPGILPSTSQLTTQKTTLTTSESLQKTTKSHQINSRQTILIIACCVGFVLMVLLFLAFLHHLFYWDVWFIYNVCLAKVKGYRSLSTSQTFYDAYISYDTKDASVTDWVINELRYHLEESRDKNVLLCLEERDWDPGLAIIDNLMQSINQSKKTVFVLTKKYAKSWNFKTAFYLALQRLMDENMDVIIFILLEPVLQHSQYLRLRQRICKSSILQWPDNPKAEGLFWQTLRNVVLTENDSRYNNMYVDSIKQYLEGGGEGRGSLLTCGDVEENPGPMAPGLLCWALLCLLGAGLVDAGVTQSPTHLIKTRGQQVTLRCSPKSGHDTVSWYQQALGQGPQFIFQYYEEEERQRGNFPDRFSGHQFPNYSSELNVNALLLGDSALYLCASSLGWRGGRYNEQFFGPGTRLTVLEDLRNVTPPKVSLFEPSKAEIANKQKATLVCLARGFFPDHVELSWWVNGKEVHSGVCTDPQAYKESNYSYCLSSRLRVSATFWHNPRNHFRCQVQFHGLSEEDKWPEGSPKPVTQNISAEAWGRADCGITSASYQQGVLSATILYEILLGKATLYAVLVSTLVVMAMVKRKNSRAKRSGSGATNFSLLKQAGDVEENPGPMWGVFLLYVSMKMGGTTGQNIDQPTEMTATEGAIVQINCTYQTSGFNGLFWYQQHAGEAPTFLSYNVLDGLEEKGRFSSFLSRSKGYSYLLLKELQMKDSASYLCASVDGNNRLAFGKGNQVVVIPNIQNPEPAVYQLKDPRSQDSTLCLFTDFDSQINVPKTMESGTFITDKCVLDMKAMDSKSNGAIAWSNQTSFTCQDIFKETNATYPSSDVPCDATLTEKSFETDMNLNFQNLLVIVLRILLLKVAGFNLLMTLRLWSS
modifications: CER21_T2A_HPV16_E7_TCR tandem cassette

Key:
[1] = test system: Racl; assay: Racl activation (PAK-PBD pull-down, immunoblot) in CER-transduced Ba/F3 cells; format: cell-based; settings: 2 hours co-culture with thymocytes, compared to CER21
From the text: The Rho family of GTPases play essential roles in actin assembly during phagocytosis. Inhibition of either Rho GTPase Racl or CDC42 in macrophages results in a complete blockade of FcR-mediated phagocytosis due to defective actin assembly. To investigate induction of phagocytic signal transduction cascades, CER-expressing cells were interrogated for the activation of CDC42 and Racl. […] Ba/F3 cells were transduced with lentiviral vectors comprising CER21 nucleic acid, CER116 nucleic acid, or vector alone (mock). Target thymocyte cells were stained with pHrodo red. CER-transduced Ba/F3 cells were co-cultured with dexamethasone pre-treated thymocytes for 2 hours. The Racl inhibitor NSC23766 (Selleck Chem) was added during the co-culture in appropriate wells. Cells were then collected, solubilized in lysis buffer, and immunoprecipitation was performed on protein lysates to detect phospho-Racl using PAK-PBD agarose beads (Cytoskeleton, Inc.). Immunoprecipitates were eluted and 25 μg of protein was loaded onto SDS-PAGE gradient gels and then probed with monoclonal, mouse anti-Racl primary antibody (Cytoskeleton Inc.) overnight at 4° C., washed, and hybridized with secondary, anti-mouse antibody conjugated to horseradish peroxidase (Jackson Labs) (FIG. 85A). […] Protein gel bands were quantified using ImageJ image processing program, and the proportion of activated Racl was quantified (FIG. 85B). […]

[2] = test system: pHrodo-red labeled, dexamethasone treated thymocytes; assay: Luminal degradation of engulfed thymocytes in CER-transduced Ba/F3 cells (time-lapse imaging); format: cell-based
Experimental: Luminal degradation in CER-transduced cells was also evaluated following engulfment. Ba/F3 cells transduced with CER21 or CER116 were co-cultured with pHrodo-red labeled, dexamethasone treated thymocytes overnight and subsequently purified by FACS. Target cell destruction was visualized by time-lapse imaging and quantified over time (FIG. 85F). […] CER116-harboring Ba/F3 cells (top) catabolize target cells, allowing cells to return to homeostasis and resume immune responsiveness. The addition of a TRAF6 signaling domain to the CER construct promotes rapid destruction of engulfed material.

[3] = test system: CER-transduced CD4+ T cells; assay: Mass cytometry (CyTOF) with viSNE marker analysis of CER-transduced CD4+ T cells; format: cell-based, human
From the text: CD4+ T cells were transduced with lentiviral vector comprising CER104, CER116, or CER117 nucleic acid. CER104 (SEQ ID NO:133) comprises a Tim4 binding domain, Tim4 transmembrane domain, and an engulfment signaling domain comprising a primary engulfment signaling domain comprising a TLR8 signaling domain and a secondary engulfment signaling domain comprising a DAP12 signaling domain. CER116 (SEQ ID NO:143) comprises a Tim4 binding domain, Tim4 transmembrane domain, and an engulfment signaling domain comprising a primary engulfment signaling domain comprising a TRAF6 signaling domain and a secondary engulfment signaling domain comprising a TLR8 signaling domain. CER117 (SEQ ID NO:144) comprises a Tim4 binding domain, Tim4 transmembrane domain, and an engulfment signaling domain comprising a primary engulfment signaling domain comprising a TLR8 signaling domain and a secondary engulfment signaling domain comprising a TRAF6 signaling domain. CER-transduced CD4+ T cells were co-cultured with E7 TCR-transduced CD8+ T cells and HPV+SCC152 target cells and interrogated by mass cytometry (CyTOF) with viSNE for visualization of high dimensional single cell data (FIGS. 82-84). Intact CER-transduced CD4+ T cells are shown in plots displaying tSNE1 (horizontal) and tSNE2 (vertical) axes. 27 intracellular markers were used for the viSNE analysis. Each dot represents a single cell. […] Red represents high expression and blue represents low expression for each marker. Populations of CD4^+ T cells were generated using a clustering algorithm from all 27 markers and overlaid onto the viSNE map. […] Populations of CD4^+ T cells were generated using a clustering algorithm from all 18 markers and overlaid onto the viSNE map (FIG. 83A). […] Color plots by 18 intracellular markers (CD28, CCR7, CD45RA, PD1, CD127, Perforin, CD49d, CD85j, CD38, CD27, Granzyme B, CD57, CD25, CD69, CD154, CD56, HLA-DR, and TCRγδ) show the phenotype across viSNE ‘islands’ (FIG. 83B). Red represents high expression and blue represents low expression for each marker. Highlighted region with arrow indicates cells expressing T cell activation marker CD69. Populations of CD4^+ T cells were generated using a clustering algorithm from 18 intracellular markers (CD28, CCR7, CD45RA, PD1, CD127, Perforin, CD49d, CD85j, CD38, CD27, Granzyme B, CD57, CD25, CD69, CD154, CD56, HLA-DR, and TCRγ6) and overlaid onto the viSNE map. […] Color plots by the 18 intracellular markers show the phenotype across viSNE ‘islands’ (FIG. 84B). Red represents high expression and blue represents low expression for each marker. Highlighted region with arrow indicates cells expressing the naïve T cell marker CD45RA.

[4] = test system: SCC152 cells; assay: Phagocytic activity of tandem expression cassette transduced CD8+ T cells; format: cell-based, human
Experimental: Phagocytic activity of tandem expression cassette transduced CD8+ T cells was detected by co-culturing tandem expression cassette transduced CD8+ T cells with SCC152 cells for 6 hours at a 1:1 ratio. Phagocytic events were visualized and quantified using KEYENCE BZ-X710 fluorescence microscope, 20X objective and hybrid capture software.

[5] = test system: SCC152 cells
Experimental: Peripheral blood was collected by venipuncture from a human donor, and human peripheral blood mononuclear cells (PBMCs) were isolated by density gradient centrifugation using lymphocyte separation media. CD8+ T cells were enriched from PBMCs using a commercially available isolation kit and activated with anti-CD3 and anti-CD28 in Complete Cell Growth Media. 50 μl of viral vector expressing the CER-HPV16 E7 TCR combination were diluted in 0.5 ml Complete Cell Growth Media and added to the CD8+ T cells. The transduced T cells were then centrifuged at 270×g rpm for 1 hour in a 32° C. pre-warmed centrifuge. The T cells were incubated for 24 hours at 37° C. T cells were expanded for another 72 hours in Complete Cell Growth Media, de-beaded, and allowed to expand x 5 days prior to being utilized for functional assays.
Cytotoxic activity of tandem expression cassette transduced CD8+ T cells was detected using a caspase 3/7 apoptosis reagent (IncuCyte®) that couples the activated caspase 3/7 recognition motif with a red reagent that fluoresces upon cleavage. The fluorescent signal was measured using fluorescent microscopy. […] The caspase 3/7 apoptosis reagent was added to the co-culture, and cytotoxic activity was measured over time by measuring fluorescence (see, FIG. 40). […]

[6] = test system: SCC152 cells; assay: Cytokine response of tandem cassette transduced CD8+ T cells; format: cell-based, human; settings: CD8+ T cells co-cultured with SCC152 cells
[7] = Engulfment of phosphatidylserine coated latex beads; format: cell-based

Row | Molecule | Racl signaling (proportion of activated Racl) [1] | time to near complete resolution of luminal contents [2] | luminal content degradation over time ([2]; FACS purified after overnight co-culture) | memory formation after antigen encounter ([3]; CD4+ T cells) | viSNE islands expressing T cell activation marker CD69 ([3]; CD4+ T cells after antigen encounter) | viSNE islands expressing intracellular marker IFNγ ([3]; CD4+ T cells after co-culture with E7 TCR CD8+ T cells and SCC152 cells) | viSNE islands expressing naïve T cell marker CD45RA within the CCR7+ population ([3]; compared to controls) | phagocytosis of SCC152 cells ([4]; CD8+ T cells, 6 hours, 1:1 ratio) | dependence of engulfment of SCC152 cells on Racl ([4]; Racl inhibitor NSC23766 (50 μM), data not shown) | cytotoxic activity toward SCC152 cells (caspase 3/7) ([5]; CD8+ T cells, 1:1 ratio) | cytotoxic response relative to CD8+ T cells comprising HPV16 E7 TCR alone ([5]; by 6 hours) | antigen specific effector function (IFNγ response) [6] | incubation time after which phosphatidylserine coated beads could be visualized inside the T cells [7] | engulfment of phosphatidylserine coated beads ([7]; CD8+ T cells, data not shown)
1 | B1 | enhanced Racl signaling | ≤ 36 h | enhanced CER116 luminal content degradation over time | associated with memory formation after antigen encounter | enrichment of islands expressing the T cell activation marker CD69 | enrichment of islands expressing the intracellular marker IFNγ | loss of islands expressing the naïve T cell marker CD45RA | – | – | – | – | – | – | –
2 | B2 | – | – | – | – | – | – | – | capable of phagocytosing SCC152 cells | Racl-dependent manner | exhibit cytotoxic activity toward SCC152 cells | exponentially higher | exhibit antigen specific effector function as measured by IFNγ response | about 30 minutes | engulfed streptavidin coated latex beads
